Test [1] addresses Zot binding sites (surface receptor) on human monocytes/macrophages (CD14+) (human).
Test [2] shares this target. In words: flow cytometry, MESF calibration, several volunteers. For orientation: A flow cytometer gives signals particle by particle.
In test [3] the target is Zot binding sites on human T lymphocytes (CD3+) (human). The test is described as above.
Test [4] shares this target. The experiment in a line: real-time flow cytometry at 37°C, Zot-FITC 40 µg/ml, CD3 gate.
Test [5] deals with Zot binding sites (surface receptor) on human monocytes/macrophages (CD14+) (human). In words: real-time flow cytometry at 37°C, Zot-FITC 40 µg/ml, CD14 gate.
Test [6] shares this target. In words: flow cytometry, increasing concentrations of Zot-FITC on human PBMC.
Test [7] concerns the target Zot binding sites on human T lymphocytes (CD3+) (human). The description is as above.
Test [8] deals with Zot binding sites (surface receptor) on human monocytes/macrophages (CD14+) (human). The experiment in a line: 4-color flow cytometry, 40 µg/ml Zot-FITC, 30 min at 37°C, CD14+ gate.
For test [9] the target is unchanged. The experiment in a line: flow cytometry, MFI converted with Quantum 26 MESF kit, saturation conditions.
The target in test [10] is Zot binding sites on human T lymphocytes (CD3+) (human). Described as above.
Test [11] concerns the target Zot binding sites (surface receptor) on human monocytes/macrophages (CD14+) (human). In words: flow cytometry; […] (10 µl); […].
In test [12] the target is Zot binding sites on human T lymphocytes (CD3+) (human). In words: flow cytometry; […] (10 µl); […].

Values joined by “and” are separate entries in the source; they are usually repeats but may differ in a detail not shown here. Identical values can stand only once. A value given as a limit tells only on which side of the number the result lay.

Regarding “6xHis-Zot fusion protein (purified Zot, unlabeled) (from UniProt P38442 1-399) (ligand)”, the percent suppression of Zot-FITC mean fluorescence intensity in [1] is 24% and 43%.
On to “Zot-FITC (6xHis-Zot fusion protein conjugated to fluorescein isothiocyanate, Examples 4-7) (from UniProt P38442 1-399) (ligand)”, for which the Zot binding sites/cell (mean of several volunteers) came to 105000 sites/cell in test [2] and 10700 sites/cell in test [3]. Further, the time to reach equilibrium in test [4] and in [5] was < 2 min in each case. The concentration at which saturation is reached in test [6] and in [7] was 0.5 pM each time. Moreover, the fold binding against T or B lymphocytes in test [8] is 5 fold and 8 fold. For the same substance, the figures for the Zot-binding sites/cell in test [9] and in test [10] were 106000 sites/cell and 9000 sites/cell, respectively.
As to “purified Zot (cleaved from MBP-Zot with Factor Xa, Example 1) (from UniProt P38442 9-399) (ligand)”, the percent decrease of Zot-FITC binding in [11] and in test [12] was 33% in each case.

(Values after patent EP1113813B1.)
